Substitutions are numbered along the chain they refer to. Numbers in names are those of the source. Where no end group is shown, it is not given here. The star is where a group is joined. EDANS = O=S(=O)(O)c1cccc2c(NCCN*)cccc12
B1: Construct B - no TME: mIL2-2x(SG4)-MMPcs1-2x(G4S)-mIL2Ralpha(1-215)-mIgG1Fc (Fc fusion)
chain: APTSSSTSSSTAEAQQQQQQQQQQQQHLEQLLMDLQELLSRMENYRNLKLPRMLTFKFYLPKQATELKDLQCLEDELGPLRHVLDLTQSKSFQLEDAENFISNIRVTVVKLKGSDNTFECQFDDESATVVDFLRRWIAFCQSIISTSPQSGGGGSGGGGGPLGVRGGGGGSGGGGSELCLYDPPEVPNATFKALSYKNGTILNCECKRGFRRLKELVYMRCLGNSWSSNCQCTSNSHDKSRKQVTAQLEHQKEQQTTTDMQKPTQSMHQENLTGHCREPPPWKHEDSKRIYHFVEGQSVHYECIPGYKALQRGPAISICKMKCGKTGWTQPQLTCVDEREHHRFLASEESQGSRNSSPESETSCPITTTDFPQPTETTAMTETFVLTMEYKGCKPCICTVPEVSSVFIFPPKPKDVLTITLTPKVTCVVVDISKDDPEVQFSWFVDDVEVHTAQTQPREEQFNSTFRSVSELPIMHQDWLNGKEFKCRVNSAAFPAPIEKTISKTKGRPKAPQVYTIPPPKEQMAKDKVSLTCMITDFFPEDITVEWQWNGQPAENYKNTQPIMDTDGSYFVYSKLNVQKSNWEAGNTFTCSVLHEGLHNHHTEKSLSHSPGK
B2: Construct GG (collagen IV): mIL2-SGG-KLWVLPK(SEQ ID NO: 200)-MMPcs1-2x(G4S)-mIL2Ra(1-215)-muIgG1Fc (Fc fusion)
chain: B1 chain with G153K, G154L, S155W, G156V, G157L, G158P, G159K

How the values were obtained:
[1] = target: collagen cross-linked to agarose (Sigma); experiment: collagen-agarose pulldown, anti-mouse IL-2 immunoblot, band intensity of the collagen-bound lane (Input (2%) band: 16707)
[2] = target: collagen cross-linked to agarose (Sigma); experiment: collagen-agarose pulldown, anti-mouse IL-2 immunoblot, band quantitation
[3] = target: collagen cross-linked to agarose (Sigma); experiment: pulldown with collagen-agarose, immunoblot quantified with iBright imaging system; reference Construct B
[4] = target: collagen cross-linked to agarose (Sigma); experiment: pulldown with collagen-agarose, immunoblot quantified with iBright imaging system
[5] = target: collagen cross-linked to agarose (Sigma); experiment: collagen-agarose pulldown, anti-mouse IL-2 immunoblot, band intensity of the collagen-bound lane (Input (2%) band: 15267)
[6] = target: biotin-labelled collagen IV (Prospec); experiment: EDANS peptide (20 µM) on biotin-collagen IV-coated streptavidin magnetic beads, fluorescence Ex 340/Em 490, pH 7.5

| Binder | Bound (% input) [2] | RFU [6] | further results |
| --- | --- | --- | --- |
| B1 | 0.3 % of input | – | Bound [1]: 2310 |
| B2 | 0.7 % of input | – | fold of bound fraction over Construct B [3]: 2.5 fold; fraction bound (of input) [4]: < 1 % of input; Bound [5]: 5190 |
| KLWVLPKGPLGVRG-{EDANS} [Peptide 14 (…-*, next generation MMP cleavable linker with collagen IV targeting sequence)] | – | 4560 RFU | – |
| GGGSGLHERHLNNN-{EDANS} [Peptide 15 (…-*, linker peptide with collagen I targeting sequence)] | – | 490 RFU | – |
| GGGSGGGGPLGVRG-{EDANS} [P1] | – | 297 RFU | – |

— patent US20240417437A1, “Linker Polypeptides” (Trutino Biosciences Inc., priority 2021, published 2024)
